Laboratory results reported in article PMC5337984, “CTCF participates in DNA damage response via poly(ADP-ribosyl)ation”.

Target: T1, CTCF ZNF1-11 (GST-zinc finger domain) (human, UniProt P49711 266-577)
T1 sequence: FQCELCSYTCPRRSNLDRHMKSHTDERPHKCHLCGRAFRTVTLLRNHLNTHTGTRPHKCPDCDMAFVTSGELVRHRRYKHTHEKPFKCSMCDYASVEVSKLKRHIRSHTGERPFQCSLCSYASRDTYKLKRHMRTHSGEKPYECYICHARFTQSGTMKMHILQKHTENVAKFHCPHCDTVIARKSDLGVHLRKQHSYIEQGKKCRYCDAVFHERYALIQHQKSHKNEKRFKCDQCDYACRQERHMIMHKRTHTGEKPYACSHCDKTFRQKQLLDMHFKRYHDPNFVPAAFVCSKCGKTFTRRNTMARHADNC
Test: EMSA; 50 mM MgCl2; 200 ng poly(dI/dC); EMSA: 25 mM HEPES pH 8.0, 50 mM KCl, 50 mM MgCl2, 1% NP40, 10% glycerol, 200 ng poly(dI/dC), 20 min at 4 C; 1 pmol protein, 0.5 pmol DNA
Conditions: protein: recombinant; tags: GST (pGEX-4T-1; N-terminal); label: 32P; blunt (only one strand printed; described as duplex oligonucleotide)

B1: insulator DNA 45-mer (dsDNA)
DNA 1: CCCCCAGGGATGTAATTACGTCCCTCCCCCGCTAGGGGGCAGCAG
DNA 2: CTGCTGCCCCCTAGCGGGGGAGGGACGTAATTACATCCCTGGGGG
Does B1 bind?
Result: binds
